Data as given in patent US20110266675A1.

Target: microtubules assembled from fluorescein-modified bovine brain tubulin (α/β-tubulin) (bovine)
Experiment: cell-based or functional assay

- average length of MTs after 5 min of polymerization, on γ-tubulin-functionalized gold pads against solution without functionalized microchips: 1.68 micron
- average length of MTs after 10 min of polymerization, on γ-tubulin-functionalized gold pads against solution without functionalized microchips: 3.47 micron
Substance: Glutathione S-Transferase (GST)-tagged γ-Tubulin fusion protein (from UniProt P23258 1-451)
